For the assay, the target named is GST-endophilin I (recombinant) (UniProt O35179). In words: sequential GST pull-down, 32P autoradiography. The following applies: reference: total dynamin I of the lysate; sites S774,S778.

“dynamin I (from UniProt P21575) 32P-labelled phospho-dynamin I of same lysate”: the other: phospho/total bound dynamin I, % of AmphI-SH3 control was 91%.

The values are drawn from paper PMC2082060.
